According to US9579382B2:

Biological target: human CD20 (human) (UniProt P11836)

Q: With rituximab (antibody) as the substance, how does the % of cytotoxicity (dead CFSE+ 7-AAD+ Raji target cells), ADCC with PBMC effector cells at 25:1 for 6 hours read?
A: The % of cytotoxicity (dead CFSE+ 7-AAD+ Raji target cells), ADCC with PBMC effector cells at 25:1 for 6 hours was 25%.
